In article PMC10144703, “Molecular Mechanism of Sirtuin 1 Inhibition by Human Immunodeficiency Virus 1 Tat Protein” (Life, 2023):

Assays:
[1] = system: mini-Sirt1-∆SBD (aa 214-505-(GGGS)2-641-665); assay: Inhibition of mini-Sirt1-∆SBD (ac-p53 substrate); format: biochemical, human; conditions: dose-dependent, 100 µM ac-p53, n = 3; relative to mini-Sirt1
Description: (§1) A human mini-Sirt1 construct (aa 183-505-(GGGS)2-641-665), as described in [27], was generated in a modified pET-19b with a TEV cleavage site. This construct and human full-length Sirt1 (fl-Sirt1) in pET-15b, Sirt1-(183-664) and Sirt1-(214-664) in pET-15b, mini-Sirt1-∆SBD (aa 214-505-(GGGS)2-641-665) and mini-Sirt1-∆ESA (aa 183–505) in a modified pET-19b with TEV cleavage site, Sirt2-(43-356) in a modified pET-19b with a His6-Sumo tag, Sirt3-(93-399) in a modified pET-32a with Trx-His6 tag and TEV cleavage site, hSirt3-(118-399) in pVFT3S (Sungkyunkwan University, Seoul, Republic of Korea) with His6-Trx tag and TEV cleavage site, Sirt5-(34-302) in pET-151/D-TOPO, and Sirt6-(1-355) in pQE80L.1 were purified as described. […]
(§2) Continuous coupled enzymatic sirtuin activity assays were conducted as described. […] Reactions were monitored for 1 h at room temperature by absorption spectroscopy at 340 nm in a UV/vis plate reader (BioTek). The slope for the linear range (typically 5–25 min) was evaluated after background correction with measurements without NAD^+. Additional control reactions were run by either omitting enzyme or omitting peptide substrate to ensure that the signal measured reflects the NAD+-dependent deacetylation activity of the sirtuin.

human Sirt6 = biological target: T1, human Sirt6 (Homo sapiens, UniProt Q8N6T7); assay: Continuous coupled enzymatic assay, Sirt6; format: biochemical; conditions: 65 μM Tat-Cys^−, myristoylated peptide at substrate Km, n = 3
T1 construct: Sirt6-(1-355) in pQE80L.1; made in house; host or cells: E. coli CodonPlus(DE3)
Description: as §1, §2

mini-Sirt1 [2] = biological target: T2, mini-Sirt1 (Homo sapiens, UniProt Q96EB6); assay: 2D-(1H, 15N)-HSQC NMR titration of Tat-Cys^− with mini-Sirt1; format: binding; conditions: 58 µM Tat-Cys^−, 2-fold molar excess mini-Sirt1, pH 6.4, 298 K
T2 construct: aa 183-505-(GGGS)2-641-665; made in house; host or cells: E. coli CodonPlus(DE3)
T2 sequence (Q96EB6 with tags, fused parts or gaps limits assumed): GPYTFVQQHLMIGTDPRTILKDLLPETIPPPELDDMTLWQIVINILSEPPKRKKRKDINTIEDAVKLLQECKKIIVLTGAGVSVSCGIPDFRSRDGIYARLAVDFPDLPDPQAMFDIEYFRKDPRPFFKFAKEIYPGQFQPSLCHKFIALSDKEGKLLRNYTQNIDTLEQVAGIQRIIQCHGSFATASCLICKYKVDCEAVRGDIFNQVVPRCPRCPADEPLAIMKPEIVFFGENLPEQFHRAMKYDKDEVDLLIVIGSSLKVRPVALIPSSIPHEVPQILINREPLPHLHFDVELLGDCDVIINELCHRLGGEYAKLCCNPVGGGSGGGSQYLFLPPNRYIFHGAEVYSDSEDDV
Experimental: NMR titration experiments were performed by stepwise addition of unlabeled mini-Sirt1 (stock concentration 260 µM) to 100 µM ^15N-labeled Tat-Cys^− in 150 mM sodium chloride, and 10 mM potassium phosphate (pH 6.4). Spectra for 2D-(^1H, ^15N)-HSQC NMR were recorded at 298 K on a Bruker 700 MHz spectrometer equipped with a cryogenically-cooled probe.

mini-Sirt1 [3] = biological target: T2, mini-Sirt1; assay: DSSO crosslinking and MS analysis of mini-Sirt1/Tat-Cys^−; format: binding
Experimental: Prior to crosslinking, mini-Sirt1, and Tat-Cys^− were dialyzed separately at 4 °C in Xpress Micro Dialyzer tubes (Serva, MD300, cutoff 6–8 kDa) against 25 mM HEPES, pH 7.5, 150 mM NaCl, 5% (v/v) glycerol. Then, 50 µM of each protein was crosslinked at 20 °C with 2.82 mM disuccinimidyl sulfoxide (DSSO) in 5% (v/v) DMSO. Before the addition of the crosslinker, 10 µL was removed from the reaction (t = 0 min) and stopped by adding 1 µL 1 M Tris/HCl, pH 8.0. Likewise, at several timepoints after the addition of DSSO, 10 µL of the reaction was sampled. Reaction samples were supplemented with SDS sample buffer and separated on a 15% SDS-PAGE. Controls contained only one of the two proteins and were treated similarly to exclude self-crosslinking.
Crosslinked protein bands were cut out from SDS-PAGE gels and digested with 200 ng trypsin in 25 mM NH4HCO3, pH 8.0, at 37 °C overnight. The digested proteins were dried in a vacuum centrifuge, resuspended in 0.1% (v/v) FA, and injected onto a desalting column, followed by automated peptide separation with a C18 column (buffer A: 0.1% (v/v) FA, 5% (v/v) acetonitrile; buffer B: 0.1% (v/v) FA, 95% (v/v) acetonitrile). MS/MS spectra were recorded with an LTQ mass spectrometer (Thermo Fischer Scientific, Waltham, MA, USA) and CID-cleaved inter-protein crosslinks were analyzed with Byonic^TM (Protein Metrics Inc., San Carlos, CA, USA).

T1 sequence (Q8N6T7 whole entry): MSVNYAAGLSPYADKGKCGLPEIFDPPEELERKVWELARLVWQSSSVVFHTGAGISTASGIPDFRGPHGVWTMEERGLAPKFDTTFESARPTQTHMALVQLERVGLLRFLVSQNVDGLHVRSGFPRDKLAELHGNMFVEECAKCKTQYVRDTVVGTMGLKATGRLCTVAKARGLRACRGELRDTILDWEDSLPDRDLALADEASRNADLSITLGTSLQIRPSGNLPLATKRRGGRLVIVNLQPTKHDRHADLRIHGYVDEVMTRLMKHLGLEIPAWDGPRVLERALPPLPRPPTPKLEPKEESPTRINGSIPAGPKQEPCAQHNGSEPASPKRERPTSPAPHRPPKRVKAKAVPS

B1: Tat-Cys^−: Recombinant 86-residue HIV1 Zaire 2 Tat with C22S, C25A, C27A, C30S, C31A, C34S, and C37A (protein)
chain: MDPVDPNIEPWNHPGSQPKTASNRAHAKKSAYHSQVAFITKGLGISYGRKKRRQRRRPSQGGQTHQDPIPKQPSSQPRGDPTGPKE
For B1, the “inhibitory effects, mini-Sirt1-∆SBD” value [1] was “unchanged inhibitory effects”, the “inhibitory effect on Sirt6, continuous assay” value (human Sirt6) was “no statistically significant effect was observed” and the “HSQC signal changes on mini-Sirt1 addition” value (mini-Sirt1 [2]) was “a large number of HSQC signals to disappear”. The “HSQC signals unchanged on mini-Sirt1 addition” value (mini-Sirt1 [2]) was “mostly to Tat residues 63–87”, the “crosslinking, SDS-PAGE” value (mini-Sirt1 [3]; 50 µM each protein, 2.82 mM DSSO, 5% (v/v) DMSO, pH 7.5, 20 °C) was “a strong band for a linked complex” and the “crosslink site by MS” value (mini-Sirt1 [3]; DSSO crosslink, trypsin digest, MS/MS) was “a crosslink between Tat-Lys71 and Sirt1-Lys238”.
